Data reported in patent publication US20160222105A1 (MacroGenics, published 2016).

Experiments:
[1] = molecular target: T1, human gpA33 (human, UniProt Q99795 22-235, limits assumed); assay: kinetics of binding to gpA33; method not stated
T1 construct: There it is printed only as gpA33; also called A33 antigen
T1 sequence (looked up): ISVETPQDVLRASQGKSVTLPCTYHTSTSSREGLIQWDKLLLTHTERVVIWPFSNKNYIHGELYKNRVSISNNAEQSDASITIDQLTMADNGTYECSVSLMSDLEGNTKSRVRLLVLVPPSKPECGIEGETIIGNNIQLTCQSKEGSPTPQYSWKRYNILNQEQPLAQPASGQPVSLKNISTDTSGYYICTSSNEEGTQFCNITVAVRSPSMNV

[2] = molecular target: T2, gpA33 on human cancer cells (human, UniProt Q99795 22-319); assay: cell-based or functional assay
T2 sequence (looked up): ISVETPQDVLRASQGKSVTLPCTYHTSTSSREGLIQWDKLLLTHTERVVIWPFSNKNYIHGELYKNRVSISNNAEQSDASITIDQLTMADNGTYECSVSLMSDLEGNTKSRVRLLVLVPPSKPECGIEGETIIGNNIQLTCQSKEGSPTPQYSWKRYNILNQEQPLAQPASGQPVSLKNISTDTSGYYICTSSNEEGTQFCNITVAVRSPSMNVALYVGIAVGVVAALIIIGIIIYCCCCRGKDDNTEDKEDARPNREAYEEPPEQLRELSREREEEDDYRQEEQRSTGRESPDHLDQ

[3] = molecular target: CD3 of cynomolgus monkey T cells (cynomolgus monkey, UniProt Q95LI5 22-198; Q95LI8 22-171); assay: cell-based or functional assay
Chain of CD3 of cynomolgus monkey T cells (Q95LI5 22-198 limits assumed, chain 1 of 2): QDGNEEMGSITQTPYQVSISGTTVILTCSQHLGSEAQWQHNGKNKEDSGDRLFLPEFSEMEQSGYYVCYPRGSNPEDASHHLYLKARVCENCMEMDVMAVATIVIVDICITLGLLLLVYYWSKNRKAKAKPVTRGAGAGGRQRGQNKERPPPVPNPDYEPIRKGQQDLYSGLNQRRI
Chain of CD3 of cynomolgus monkey T cells (Q95LI8 22-171 limits assumed, chain 2 of 2): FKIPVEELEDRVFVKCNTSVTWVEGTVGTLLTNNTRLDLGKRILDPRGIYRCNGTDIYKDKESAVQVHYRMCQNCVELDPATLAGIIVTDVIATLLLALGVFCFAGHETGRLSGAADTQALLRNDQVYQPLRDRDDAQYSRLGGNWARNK

[4] = molecular target: T3, soluble human gpA33 with 6His (human, UniProt Q99795 22-235); assay: SPR (BIAcore 3000), captured gpA33-His, diabody as analyte, 1:1 Langmuir global fit
T3 construct: range 1-235; Expressed in CHO-S cells; The stated range starts at residue 1 and so includes the signal peptide; also called hgpA33-His
T3 sequence: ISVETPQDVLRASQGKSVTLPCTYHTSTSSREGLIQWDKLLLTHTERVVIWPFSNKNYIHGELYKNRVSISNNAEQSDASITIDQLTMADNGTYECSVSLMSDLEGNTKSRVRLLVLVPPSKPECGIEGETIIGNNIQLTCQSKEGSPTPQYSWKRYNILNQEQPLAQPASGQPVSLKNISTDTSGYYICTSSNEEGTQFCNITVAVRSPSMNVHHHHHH

[5] = molecular target: T4, soluble cynomolgus monkey gpA33 with 6His (cynomolgus monkey, UniProt G7NU40 17-329); assay: as above
T4 construct: range 1-314; The range 1-314 is as printed; also called cynogpA33-His
T4 sequence: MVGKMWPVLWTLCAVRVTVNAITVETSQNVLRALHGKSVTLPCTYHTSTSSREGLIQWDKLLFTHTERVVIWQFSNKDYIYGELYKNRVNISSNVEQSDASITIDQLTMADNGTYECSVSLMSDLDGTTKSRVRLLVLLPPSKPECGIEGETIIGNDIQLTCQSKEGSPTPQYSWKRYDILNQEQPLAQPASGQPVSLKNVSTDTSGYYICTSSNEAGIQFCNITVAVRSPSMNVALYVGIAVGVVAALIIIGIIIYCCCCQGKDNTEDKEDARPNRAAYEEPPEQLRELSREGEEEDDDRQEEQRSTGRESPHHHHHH

[6] = molecular target: T5, soluble human CD3ε/CD3δ heterodimer (human); assay: SPR (BIAcore 3000), CD3 immobilized on CM5 chip, diabody as analyte, 1:1 Langmuir global fit
T5 construct: Co-expressed in CHO-S cells; also called hCD3ε/δ
T5 chain 1: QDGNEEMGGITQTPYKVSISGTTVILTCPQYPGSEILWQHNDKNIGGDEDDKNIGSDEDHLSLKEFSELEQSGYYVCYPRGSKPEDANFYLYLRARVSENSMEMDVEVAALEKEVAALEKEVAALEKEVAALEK
T5 chain 2: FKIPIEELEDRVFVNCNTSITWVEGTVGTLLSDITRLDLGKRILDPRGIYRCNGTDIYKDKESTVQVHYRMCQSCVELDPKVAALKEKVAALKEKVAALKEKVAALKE
Experimental: (§1) gpA33×CD3 bi-specific Fc diabody (DART-2 w/Fc Version 1) binding to soluble versions of human and cynomolgus monkey CD3 receptor was analyzed by SPR on a BIAcore 3000 biosensor (GE, Healthcare). Receptors were immobilized on the CM5 sensor chip according to the procedure recommended by the manufacturer. Briefly, the carboxyl groups on the sensor chip surface were activated with an injection of a solution containing 0.2M N-ethyl-N-(3dietylamino-propyl) carbodiimide and 0.05M N-hydroxy-succinimide. Soluble CD3 receptor (1 μg/ml) was then injected over the activated CM5 surface in 10 mM sodium-acetate, pH 5.0, at flow rate 5 μL/min, followed by 1 M ethanolamine for deactivation.
(§2) Binding experiments were performed in HBS-EP buffer, which contains 10 mM HEPES, pH 7.4, 150 mM NaCl, 3 mM EDTA and 0.005% P20 surfactant. Binding of DART-2 w/Fc Version 1 was analyzed (in duplicate) at concentrations of 0, 6.25, 12.5, 25, 50 and 100 nM, injected for 120 sec at a flow rate of 30 μL/min.
(§3) Regeneration of the immobilized receptor surfaces was performed by pulse injection of 10 mM glycine, pH 1.5. Reference curves were obtained by injection of each dilution of DART-2 w/Fc over the treated surface with no immobilized protein. Binding curves at zero concentration were subtracted as a blank. KD values were determined by a global fit of binding curves to the Langmuir 1:1 binding model (BIAevaluation™ software v4.1).

[7] = molecular target: T6, soluble cynomolgus monkey CD3ε/CD3δ heterodimer (cynomolgus monkey); assay: as above
T6 construct: Co-expressed in CHO-S cells; also called cynoCD3ε/δ
T6 chain 1: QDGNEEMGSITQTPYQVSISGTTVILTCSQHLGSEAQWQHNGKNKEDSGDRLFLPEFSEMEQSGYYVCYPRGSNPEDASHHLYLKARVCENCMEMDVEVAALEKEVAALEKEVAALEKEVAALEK
T6 chain 2: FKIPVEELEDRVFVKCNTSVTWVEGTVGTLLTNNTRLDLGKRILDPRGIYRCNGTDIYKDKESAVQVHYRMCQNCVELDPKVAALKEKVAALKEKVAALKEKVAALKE
Experimental: as §1, §2, §3

B1: Murine mAb 1 (antibody, V domains shown)
VH: QVQLQQSGPELVKPGASVKISCKASGYTFSGSWMNWVKQRPGQGLEWIGRIYPGDGETNYNGKFKDKATLTADKSSTTAYMELSSLTSVDSAVYFCARIYGNNVYFDVWGAGTTVTVSS
VL: QIVLTQSPAIMSASPGERVTMTCSARSSISFMYWYQQKPGSSPRLLIYDTSNLASGVPVRFSGSGSGTSYSLTISRMEAEDAATYYCQQWSSYPLTFGSGTKLELK
notes: also called original murine anti-human gpA33 monoclonal antibody
[1]
  Kd: 2.3 nM

B2: Chimeric mAb 1 (antibody, V domains shown)
VH: QVQLQQSGPELVKPGASVKISCKASGYTFSGSWMNWVKQRPGQGLEWIGRIYPGDGETNYNGKFKDKATLTADKSSTTAYMELSSLTSVDSAVYFCARIYGNNVYFDVWGAGTTVTVSS
VL: QIVLTQSPAIMSASPGERVTMTCSARSSISFMYWYQQKPGSSPRLLIYDTSNLASGVPVRFSGSGSGTSYSLTISRMEAEDAATYYCQQWSSYPLTFGSGTKLELK
notes: also called chimericized anti-human gpA33 antibody
[1]
  Kd: 2.4 nM

B3: Humanized mAb 1 (antibody, V domains shown)
VH: QVQLVQSGAEVKKPGASVKVSCKASGYTFTGSWMNWVRQAPGQGLEWIGRIYPGDGETNYNGKFKDRVTITADKSTSTAYMELSSLRSEDTAVYYCARIYGNNVYFDVWGQGTTVTVSS
VL: DIQLTQSPSFLSASVGDRVTITCSARSSISFMYWYQQKPGKAPKLLIYDTSNLASGVPSRFSGSGSGTEFTLTISSLEAEDAATYYCQQWSSYPLTFGQGTKLEIK
notes: also called humanized anti-human gpA33 antibody
[1]
  Kd: 3.4 nM

B4: gpA33 × CD3 bi-specific monovalent diabody (DART-2) (bispecific antibody)
chain 1: QAVVTQEPSLTVSPGGTVTLTCRSSTGAVTTSNYANWVQQKPGQAPRGLIGGTNKRAPWTPARFSGSLLGGKAALTITGAQAEDEADYYCALWYSNLWVFGGGTKLTVLGGGGSGGGGQVQLVQSGAEVKKPGASVKVSCKASGYTFTGSWMNWVRQAPGQGLEWIGRIYPGDGETNYNGKFKDRVTITADKSTSTAYMELSSLRSEDTAVYYCARIYGNNVYFDVWGQGTTVTVSSGGCGGGEVAALEKEVAALEKEVAALEKEVAALEK
chain 2: DIQLTQSPSFLSASVGDRVTITCSARSSISFMYWYQQKPGKAPKLLIYDTSNLASGVPSRFSGSGSGTEFTLTISSLEAEDAATYYCQQWSSYPLTFGQGTKLEIKGGGSGGGGEVQLVESGGGLVQPGGSLRLSCAASGFTFSTYAMNWVRQAPGKGLEWVGRIRSKYNNYATYYADSVKDRFTISRDDSKNSLYLQMNSLKTEDTAVYYCVRHGNFGNSYVSWFAYWGQGTLVTVSSGGCGGGKVAALKEKVAALKEKVAALKEKVAALKE
[2]
  EC50 - CTL Activity, Colo205 Target Cells, LDH Assay, Human PBMC: 4.09 ng/mL
  EC50 - CTL Activity, Colo205 Target Cells, Luciferase Assay, Human PBMC: 2.73 ng/mL
[3]
  EC50 - CTL Activity, Colo205 Target Cells, LDH Assay, Cyno PBMC: 3.81 ng/mL
  EC50 - CTL Activity, Colo205 Target Cells, Luciferase Assay, Cyno PBMC: 1.55 ng/mL

B5: gpA33 × CD3 bi-specific monovalent diabody having an Albumin-Binding Domain (DART-2 w/ABD) (bispecific antibody)
chain 1: QAVVTQEPSLTVSPGGTVTLTCRSSTGAVTTSNYANWVQQKPGQAPRGLIGGTNKRAPWTPARFSGSLLGGKAALTITGAQAEDEADYYCALWYSNLWVFGGGTKLTVLGGGGSGGGGQVQLVQSGAEVKKPGASVKVSCKASGYTFTGSWMNWVRQAPGQGLEWIGRIYPGDGETNYNGKFKDRVTITADKSTSTAYMELSSLRSEDTAVYYCARIYGNNVYFDVWGQGTTVTVSSGGCGGGEVAALEKEVAALEKEVAALEKEVAALEKGGGSLAQAKEAAIRELDKYGVSDYYKNLIDNAKSAEGVKALIDEILAALP
chain 2: DIQLTQSPSFLSASVGDRVTITCSARSSISFMYWYQQKPGKAPKLLIYDTSNLASGVPSRFSGSGSGTEFTLTISSLEAEDAATYYCQQWSSYPLTFGQGTKLEIKGGGSGGGGEVQLVESGGGLVQPGGSLRLSCAASGFTFSTYAMNWVRQAPGKGLEWVGRIRSKYNNYATYYADSVKDRFTISRDDSKNSLYLQMNSLKTEDTAVYYCVRHGNFGNSYVSWFAYWGQGTLVTVSSGGCGGGKVAALKEKVAALKEKVAALKEKVAALKE
[2]
  EC50 - CTL Activity, Colo205 Target Cells, LDH Assay, Human PBMC: 5.52 ng/mL
  EC50 - CTL Activity, Colo205 Target Cells, Luciferase Assay, Human PBMC: 3.07 ng/mL
[3]
  EC50 - CTL Activity, Colo205 Target Cells, LDH Assay, Cyno PBMC: 4.63 ng/mL
  EC50 - CTL Activity, Colo205 Target Cells, Luciferase Assay, Cyno PBMC: 1.63 ng/mL

B6: gpA33 × CD3 bi-specific monovalent diabody having an IgG Fc Domain version 1 (DART-2 w/Fc Version 1) (bispecific antibody)
chain 1: DIQLTQSPSFLSASVGDRVTITCSARSSISFMYWYQQKPGKAPKLLIYDTSNLASGVPSRFSGSGSGTEFTLTISSLEAEDAATYYCQQWSSYPLTFGQGTKLEIKGGGSGGGGEVQLVESGGGLVQPGGSLRLSCAASGFTFSTYAMNWVRQAPGKGLEWVGRIRSKYNNYATYYADSVKDRFTISRDDSKNSLYLQMNSLKTEDTAVYYCVRHGNFGNSYVSWFAYWGQGTLVTVSSGGCGGGEVAALEKEVAALEKEVAALEKEVAALEKGGGDKTHTCPPCPAPEAAGGPSVFLFPPKPKDTLMISRTPEVTCVVVDVSHEDPEVKFNWYVDGVEVHNAKTKPREEQYNSTYRVVSVLTVLHQDWLNGKEYKCKVSNKALPAPIEKTISKAKGQPREPQVYTLPPSREEMTKNQVSLWCLVKGFYPSDIAVEWESNGQPENNYKTTPPVLDSDGSFFLYSKLTVDKSRWQQGNVFSCSVMHEALHNHYTQKSLSLSPGK
chain 2: QAVVTQEPSLTVSPGGTVTLTCRSSTGAVTTSNYANWVQQKPGQAPRGLIGGTNKRAPWTPARFSGSLLGGKAALTITGAQAEDEADYYCALWYSNLWVFGGGTKLTVLGGGGSGGGGQVQLVQSGAEVKKPGASVKVSCKASGYTFTGSWMNWVRQAPGQGLEWIGRIYPGDGETNYNGKFKDRVTITADKSTSTAYMELSSLRSEDTAVYYCARIYGNNVYFDVWGQGTTVTVSSGGCGGGKVAALKEKVAALKEKVAALKEKVAALKE
chain 3: not shown
notes: also called DART-2 with Fc
[4]
  Kd: 2.2 nM
  koff: 0.0009 s⁻¹
  kon: 420000 M⁻¹ s⁻¹
[5]
  Kd: 12 nM
  koff: 0.0028 s⁻¹
  kon: 230000 M⁻¹ s⁻¹
[6]
  Kd: 23 nM
  koff: 0.0035 s⁻¹
  kon: 150000 M⁻¹ s⁻¹
[7]
  Kd: 26 nM
  koff: 0.0034 s⁻¹
  kon: 130000 M⁻¹ s⁻¹
